# Results published in US20030059827A1, “Engineered protein binding domains and methods and systems for their design and use” (priority 2001, published 2003).
# Where two headings read alike, the source gives them in different places.
# B1: PDZ-3: third PDZ domain of the mouse PSD-95 protein, amino acid 302 to 402; unmodified redesign precursor (protein, UniProt Q62108 302-402, looked up, fragment)
# chain: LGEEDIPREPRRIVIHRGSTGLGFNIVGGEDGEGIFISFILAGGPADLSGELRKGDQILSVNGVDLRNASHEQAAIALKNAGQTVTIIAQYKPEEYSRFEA
# modifications: PDZ 3
# notes: third PDZ domain of the mouse PSD-95 protein, amino acid 302 to 402; unmodified redesign precursor
# Legend:
# [1] = target: GFP-PEP (natural target peptide of the PDZ-3 domain, C-terminus of CRIPT) (Aequorea victoria, UniProt P42212, F64L/H231L/S65T); conditions: PDZ fused to Gal4 activation domain, GFP-pep fused to Gal4 binding domain, SD lacking Trp, Leu, His, Adenine
# Experimental: The two parts of the yeast two-hybrid system were prepared as follows. On one hand, either of the GFP derivatives carrying the C-terminal protein sequences (GFP-pep and GFP-Eg5) were cloned between the NcoI and BamHI sites the pGBKT7 plasmid (Clontech) to obtain a fusion with the DNA binding domain of Gal4. On the other hand, the modified PDZ domains were cloned between the EcoRI and XhoI sites of pGADT7 (Clontech) to obtain a fusion with the activation domain of Gal4. The resulting plasmids were introduced in the yeast strain J569a using the method described by Agatep et al, 1998. Yeast cells were plated in SD lacking Trp and Leu, and then stricken in selective SD medium lacking Trp, Leu, His, and Adenine. Cells only grow in this selective medium if there is an interaction between the expression products of the two plasmids.
# Yeast cells transfected with only one of the two plasmids were also tested as controls.
# GFP = GFP (Aequorea victoria, UniProt P42212, F64L/H231L/S65T); conditions: 6XHis-PDZ on Ni-NTA agarose, E. coli extract, anti-GFP Western blot
# Text: (§1) To carry out the affinity chromatography assay, bacterially-expressed PDZ domains and EGFP derivatives were produced and fused to the different target peptides. The original and modified PDZ domains were expressed in E. coli XL1-Blue as fusions with 6XHis. The EGFP-peptides fusions were expressed in E. coli BL21 as described in Sambrook et al, 1989, Molecular Cloning: A Laboratory Manual, 2nd Ed., Vol 3. The bacterially expressed PDZ domains were then bound to nickel resin (Ni-NTA agarose, Quiagen) as described by the manufacturer. The resin-bound PDZ domains were then incubated with E.coli extracts made from bacteria expressing each of the target peptide-GFP fusions and washed four times with 50 mM NaH2PO4, 300 mM NaCl; 20 mM Imidazole; 0,1% of TritonX-100 to remove any unbound proteins. The bound proteins were eluted using 50 mM NaH2PO4, 300 mM NaCl; 200 mM Imidazole and analyzed by Western blot using antibodies against GFP to determine the presence of EGFP fused to the target peptide.
# [2] = target: GFP fused to the C-terminal peptide recognized by the original PDZ (pep, CRIPT) (Aequorea victoria, UniProt P42212, F64L/H231L/S65T); conditions: 6XHis-PDZ on Ni-NTA agarose, E. coli extract, anti-GFP Western blot
# Text: as §1
# [3] = target: GFP fused to the Eg5 C-terminal peptide (Mus musculus, UniProt Q6P9P6); conditions: 6XHis-PDZ on Ni-NTA agarose, E. coli extract, anti-GFP Western blot
# Text: as §1
# Biotin-GG-KQTSV = target: T1, Biotin-GG-KQTSV (Homo sapiens, UniProt Q9P021); experiment: Micro-calorimetric assay; assay type: binding
# T1 construct: with its natural target (Biotin-GG-KQTSV)
# Text: Physical methods for measuring the dissociation (or affinity) constant include iso-thermal calorimetry, surface plasmon resonance, analytical ultra-centrifagation (where appropriate), and so forth. Iso-thermal calorimetry is the preferred method. Iso-thermal calorimetry measures the heat released when a binding polypeptide binds to its target under constant-temperature, constant-pressure conditions. From these measurements, the thermodynamic parameters of this binding can be routinely determined by the methods of physical chemistry. For example, it is routinely possible to obtain the binding affinity (or dissociation constant), the stoichiometry of binding (n), the heat (or enthalpy) of binding (H), the heat capacity of binding, the entropy of binding, and so forth. Current micro-iso-thermal machines are readily available commercially. Such machines are fully automatic, directly returning the above thermodynamic results. See, e.g., MicoCal, LLC, Northampton. Mass.; www.microcalorimetry.com.
# FIG. 14 illustrates the routine use of micro-calorimetry to determine the binding parameters of the wild-type PDZ (PDZ3 of PSD095) domain with its natural target (Biotin-GG-KQTSV). This figure present the output of an automated micro-calorimetry experiment returning the stoichiometry constant (n), the affinity constant (K), the enthalpy of binding (H), and the entropy of binding (S).
molecule,measurement,setting,value
B1,viability of transfected yeast cells in selective medium (interaction),[1],specifically interacts with its target peptide
same,viability of transfected yeast cells in selective medium (interaction),[1]; listed as PGADT7-PDZ,allow viability
same,binding of GFP alone to immobilized PDZ domain,GFP,not able to bind
same,binding of GFP-pep fusion to immobilized PDZ domain,[2],binds only to its naturally recognized target peptide
same,binding of GFP-pep fusion to immobilized PDZ domain,[2]; listed as original PDZ,very efficiently bind
same,binding of GFP-Eg5 fusion to immobilized PDZ domain,[3],not able to bind
same,Kd,"Biotin-GG-KQTSV; corresponding to the measured affinity constant, read-out: dissociation constant",39 µM
same,affinity constant (K),"Biotin-GG-KQTSV; micro-calorimetry, natural target Biotin-GG-KQTSV",25700 M⁻¹
